Experimental data published in patent publication US20200157212A1 (Pfizer, published 2020).

T1: Terbium (Tb) labeled-SNAP tagged ROBO2 expressed on HEK293 cells (Homo sapiens (Human), UniProt Q9HCK4 22-1378, terbium label on the SNAP tag)
T1 construct: also called Tb-labeled ROBO2 cells; ROBO2 expressing cells; not shown: SNAP tag
T1 sequence: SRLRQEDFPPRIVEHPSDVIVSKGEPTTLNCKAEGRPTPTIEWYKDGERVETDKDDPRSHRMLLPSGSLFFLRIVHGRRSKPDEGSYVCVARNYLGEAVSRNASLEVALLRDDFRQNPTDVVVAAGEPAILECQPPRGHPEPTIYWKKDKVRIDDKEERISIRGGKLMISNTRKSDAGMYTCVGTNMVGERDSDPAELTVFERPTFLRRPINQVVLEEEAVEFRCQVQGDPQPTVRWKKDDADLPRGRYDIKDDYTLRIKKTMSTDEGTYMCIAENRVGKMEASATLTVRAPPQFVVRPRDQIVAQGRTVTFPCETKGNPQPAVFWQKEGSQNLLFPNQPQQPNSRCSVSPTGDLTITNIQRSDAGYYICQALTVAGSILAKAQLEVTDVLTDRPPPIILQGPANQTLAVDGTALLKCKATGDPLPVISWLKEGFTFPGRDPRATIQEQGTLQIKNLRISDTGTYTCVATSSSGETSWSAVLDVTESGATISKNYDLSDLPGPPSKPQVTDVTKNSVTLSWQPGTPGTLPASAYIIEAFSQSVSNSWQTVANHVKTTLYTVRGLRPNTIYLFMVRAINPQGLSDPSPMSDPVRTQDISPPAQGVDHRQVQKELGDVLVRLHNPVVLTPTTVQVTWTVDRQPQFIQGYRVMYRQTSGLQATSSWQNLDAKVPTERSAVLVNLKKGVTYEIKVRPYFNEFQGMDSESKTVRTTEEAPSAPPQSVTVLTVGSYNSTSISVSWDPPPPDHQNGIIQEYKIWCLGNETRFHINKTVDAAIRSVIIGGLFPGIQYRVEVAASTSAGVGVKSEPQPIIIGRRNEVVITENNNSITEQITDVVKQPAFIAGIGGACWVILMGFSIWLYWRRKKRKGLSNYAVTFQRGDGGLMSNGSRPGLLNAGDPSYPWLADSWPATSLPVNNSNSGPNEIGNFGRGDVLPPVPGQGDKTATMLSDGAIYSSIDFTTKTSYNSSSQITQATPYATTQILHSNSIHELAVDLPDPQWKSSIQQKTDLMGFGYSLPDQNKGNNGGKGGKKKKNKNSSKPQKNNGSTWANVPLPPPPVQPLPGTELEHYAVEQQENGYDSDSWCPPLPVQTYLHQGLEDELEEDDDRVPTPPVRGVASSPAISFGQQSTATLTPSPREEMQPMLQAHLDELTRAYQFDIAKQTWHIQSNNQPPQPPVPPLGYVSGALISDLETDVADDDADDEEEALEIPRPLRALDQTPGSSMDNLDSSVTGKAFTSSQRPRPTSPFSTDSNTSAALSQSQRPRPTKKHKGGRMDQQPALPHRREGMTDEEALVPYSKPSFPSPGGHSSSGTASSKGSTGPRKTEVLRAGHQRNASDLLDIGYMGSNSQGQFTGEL


Assays:
[1] = molecular target: T1, Terbium (Tb) labeled-SNAP tagged ROBO2 …; test: HTRF, 5 nM d2-SLIT2-N on Tb-SNAP-ROBO2 HEK293 cells, 1 nM antibody
Procedure: (§1) In this assay, terbium (Tb) labeled-SNAP tagged ROBO2 expressing HEK293 cells were incubated with 5 nM d2-labeled SLIT-2N in the presence of 1 nM anti-ROBO2 antibodies for 1 hour. After incubation, fluorescence at 665 nm and 620 nm was measured on an Envision multilabel plate reader. […] Maximal signal was defined as the HTRF ratio of Tb-labeled ROBO2 cells with d2-labeled SLIT2-N in the absence of antibody, the minimum signal was defined as the HTRF ratio of Tb-labeled ROBO2 expressing HEK293 cells only. One nanomolar (nM) parental antibody, 93H2, was unable to block the HTRF assay, therefore this concentration was selected to identify clones with a higher affinity than 93H2 (Table 2, HTRF Ratio column). […] Antibodies derived from chain (Abcs series) or CDR shuffling (CTIR-2 series) were evaluated in 11-point, 5-fold dilution series with a top concentration of 1500 nM (Table 2 HTRF IC₅₀).
HTRF assays were run with 5 nM d2-labeled SLIT2-N and antibodies were added at 1 nM. […] Antibodies derived from chain (Abcs series) or CDR shuffling (CTIR-2 series) were evaluated in 11-point, 5-fold dilution series with a top concentration of 1500 nM, N.T. = not tested; ^cFold selectivity was calculated as Geometric Mean Fluorescent Intensity (Geo MFI) of ROBO2/Geo MFI of ROBO1 binding.

[2] = molecular target: T1, Terbium (Tb) labeled-SNAP tagged ROBO2 …; test: HTRF competition, competitor d2-SLIT2-N, ROBO2 HEK293 cells
Procedure: as §1, with “Antibodies generated as a result of the affinity maturation campaign were screened by numerous assays for neutralization of SLIT2-N binding, selective binding to ROBO2 over ROBO1, and inhibition of SLIT2-N functional activity (see Table 2). A ROBO2-SLIT2-N homogenous time resolved fluorescence (HTRF) assay was used to identify antibodies that were capable of blocking SLIT2-N binding to ROBO2. In” for “In”

Row | HTRF Ratio [1] | IC50 [2] | Binder
1 | 4540 | 0.159 nM | CTIR2-1 (antibody, human IgG1, kappa, V domains shown, CDR-shuffled IgG) VH: EVQLVQSGAEVKKPGASVKVSCKASGYTFTGYYMHWVRQAPGQGLEWMGWINPRSGATNFPQKFQGRVTMTRDTSITTAYMDLSRLRSDDTAVYYCARESGDDAFDIWGQGTMVTVSS VL: DIVMTQSPSSLSASVGDRVTITCRASQSISSYLNWYQQKPGKAPKLLIYAASSLQYGVPSRFSGSGSGTDFTLTISSLQPEDFATYYCQQSLELGFGGGTKVEIKR
2 | 4780 | 0.182 nM | CTIR2-11 (antibody, human IgG1, kappa, V domains shown, CDR-shuffled IgG) VH: EVQLVQSGAEVKKPGASVKVSCKASGYTFRGYAMHWVRQAPGQGLEWMGWIDPRTGLTKFPQKFQGRVTMTRDTSITTAYMDLSRLRSDDTAVYYCARESGDDAFDIWGQGTMVTVSS VL: not shown
3 | 5180 | 0.165 nM | CTIR2-5 (antibody, human IgG1, kappa, V domains shown, CDR-shuffled IgG) VH: EVQLVQSGAEVKKPGASVKVSCKASGYTFTGYYMHWVRQAPGQGLEWMGWINPKSGATNFPQKFQGRVTMTRDTSITTAYMDLSRLRSDDTAVYYCARESGDDAFDIWGQGTMVTVSS VL: DIVMTQSPSSLSASVGDRVTITCRASQKISSYLNWYQQKPGKAPKLLIYAASSLQSGVPSRFSGSGSGTDFTLTISSLQPEDFATYYCQQSLELGFGGGTKVEIKR
4 | 3670 | 0.136 nM | CTIR2-7 (antibody, human IgG1, kappa, V domains shown, CDR-shuffled IgG) VH: EVQLVQSGAEVKKPGASVKVSCKASGYTFTGYYMHWVRQAPGQGLEWMGWINPKSGATNFPQKFQGRVTMTRDTSITTAYMDLSRLRSDDTAVYYCARESGDDAFDIWGQGTMVTVSS VL: DIVMTQSPSSLSASVGDRVTITCRASQKISSYLNWYQQKPGKAPKLLIYAASSLQYGVPSRFSGSGSGTDFTLTISSLQPEDFATYYCQQSLELGFGGGTKVEIKR
5 | 4330 | 0.109 nM | CTIR2-2 (antibody, human IgG1, kappa, V domains shown, CDR-shuffled IgG) VH: EVQLVQSGAEVKKPGASVKVSCKASGYTFTGYYMHWVRQAPGQGLEWMGWINPRSGATNFPQKFQGRVTMTRDTSITTAYMDLSRLRSDDTAVYYCARESGDDAFDIWGQGTMVTVSS VL: DIVMTQSPSSLSASVGDRVTITCRASQSISSYLNWYQQKPGKAPKLLIYAASSLQYGVPSRFSGSGSGTDFTLTISSLQPEDFATYYCQQSVGLSFGGGTKVEIKR
6 | 4050 | 0.154 nM | CTIR2-3 (antibody, human IgG1, kappa, V domains shown, CDR-shuffled IgG) VH: EVQLVQSGAEVKKPGASVKVSCKASGYTFTGYYMHWVRQAPGQGLEWMGWINPRSGATNFPQKFQGRVTMTRDTSITTAYMDLSRLRSDDTAVYYCARESGDDAFDIWGQGTMVTVSS VL: DIVMTQSPSSLSASVGDRVTITCRASQSISSYLNWYQQKPGKAPKLLIYAASSLQYGVPSRFSGSGSGTDFTLTISSLQPEDFATYYCQQSVGLFFGGGTKVEIKR
7 | 6170 | 0.38 nM | CTIR2-4 (antibody, human IgG1, kappa, V domains shown, CDR-shuffled IgG) VH: EVQLVQSGAEVKKPGASVKVSCKASGYTFTGYYMHWVRQAPGQGLEWMGWINPKSGATNFPQKFQGRVTMTRDTSITTAYMDLSRLRSDDTAVYYCARESGDDAFDIWGQGTMVTVSS VL: DIVMTQSPSSLSASVGDRVTITCRASQKISSYLNWYQQKPGKAPKLLIYAASSLQYGVPSRFSGSGSGTDFTLTISSLQPEDFATYYCQQSYSTSFGGGTKVEIKR
8 | 3860 | 0.108 nM | CTIR2-8 (antibody, human IgG1, kappa, V domains shown, CDR-shuffled IgG) VH: EVQLVQSGAEVKKPGASVKVSCKASGYTFTGYYMHWVRQAPGQGLEWMGWINPKSGATNFPQKFQGRVTMTRDTSITTAYMDLSRLRSDDTAVYYCARESGDDAFDIWGQGTMVTVSS VL: DIVMTQSPSSLSASVGDRVTITCRASQKISSYLNWYQQKPGKAPKLLIYAASSLQYGVPSRFSGSGSGTDFTLTISSLQPEDFATYYCQQSVGLSFGGGTKVEIKR
9 | 4580 | 0.076 nM | CTIR2-12 (antibody, human IgG1, kappa, V domains shown, CDR-shuffled IgG) VH: EVQLVQSGAEVKKPGASVKVSCKASGYTFRGYAMHWVRQAPGQGLEWMGWIDPRTGLTKFPQKFQGRVTMTRDTSITTAYMDLSRLRSDDTAVYYCARESGDDAFDIWGQGTMVTVSS VL: DIVMTQSPSSLSASVGDRVTITCRASQKISSYLNWYQQKPGKAPKLLIYAASSLQSGVPSRFSGSGSGTDFTLTISSLQPEDFATYYCQQSYSTSFGGGTKVEIKR
